Laboratory results reported in CN115368448A (HEFEI TIANGANG IMMUNOLOGY PHARMACEUTICAL CO LTD, dated 2022).

Assays:
[1] = biological target: T1, CD33 on human acute myeloid leukaemia HL-60 tumour cells (human, UniProt P20138 18-364); assay: flow cytometry on HL-60 cells, Alexa-647 anti-human Fc secondary
T1 construct: whole, on cells; also called 人急性髓系细胞白血病HL-60肿瘤细胞; HL-60细胞

[2] = biological target: T2, CD27 on human peripheral blood CD8+ T cells (human, UniProt P26842 20-260); assay: flow cytometry on human PBMC gated on CD8+ T cells, Alexa-647 anti-human Fc secondary
T2 construct: whole, on cells; also called 人外周血T细胞; 人外周血CD8+ T细胞
T2 sequence (looked up): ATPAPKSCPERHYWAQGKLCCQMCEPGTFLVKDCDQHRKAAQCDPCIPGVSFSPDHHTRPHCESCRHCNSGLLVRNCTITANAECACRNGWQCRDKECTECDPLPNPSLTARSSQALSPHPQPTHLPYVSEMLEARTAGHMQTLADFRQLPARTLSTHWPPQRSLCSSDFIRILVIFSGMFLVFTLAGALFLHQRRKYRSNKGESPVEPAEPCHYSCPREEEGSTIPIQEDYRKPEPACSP

[3] = biological target: T3, CD27蛋白 (SEQ ID NO:27), expressed on transduced cells (Homo sapiens (Human), UniProt P26842 20-260); assay: flow cytometry on CHO-K1-CD27 cells, Alexa-647 anti-human Fc secondary
T3 construct: The entry includes the signal peptide; also called CHO-K1-CD27细胞; Jurkat-NFAT-lucia-CD27细胞
T3 sequence: T2 sequence (looked up)

[4] = biological target: T4, CD33蛋白 (SEQ ID NO:29), expressed on transduced cells (Homo sapiens (Human), UniProt P20138 18-364); assay: flow cytometry on CHO-K1-CD33 cells, Alexa-647 anti-human Fc secondary
T4 construct: The entry includes the signal peptide; also called CHO-K1-CD33细胞; A375-CD33细胞
T4 sequence (P20138 18-364 limits assumed): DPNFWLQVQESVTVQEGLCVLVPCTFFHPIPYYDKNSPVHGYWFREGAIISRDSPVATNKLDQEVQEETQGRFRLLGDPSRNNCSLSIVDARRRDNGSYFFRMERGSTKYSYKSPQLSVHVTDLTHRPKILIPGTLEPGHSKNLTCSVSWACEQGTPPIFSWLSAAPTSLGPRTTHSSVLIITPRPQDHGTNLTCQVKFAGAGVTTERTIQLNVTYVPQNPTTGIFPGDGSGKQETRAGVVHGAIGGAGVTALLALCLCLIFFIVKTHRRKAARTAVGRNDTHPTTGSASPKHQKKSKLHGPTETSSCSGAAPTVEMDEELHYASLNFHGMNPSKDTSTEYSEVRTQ

T1 sequence (P20138 18-364): as the sequence (P20138 18-364 limits assumed) above

binding result [1]: binds | binding result [2]: binds | binding result [3]: binds | binding result [4]: binds
B1: CD27×CD33双特异抗体 (bispecific antibody, human IgG1, kappa, L234A L235A)
chain: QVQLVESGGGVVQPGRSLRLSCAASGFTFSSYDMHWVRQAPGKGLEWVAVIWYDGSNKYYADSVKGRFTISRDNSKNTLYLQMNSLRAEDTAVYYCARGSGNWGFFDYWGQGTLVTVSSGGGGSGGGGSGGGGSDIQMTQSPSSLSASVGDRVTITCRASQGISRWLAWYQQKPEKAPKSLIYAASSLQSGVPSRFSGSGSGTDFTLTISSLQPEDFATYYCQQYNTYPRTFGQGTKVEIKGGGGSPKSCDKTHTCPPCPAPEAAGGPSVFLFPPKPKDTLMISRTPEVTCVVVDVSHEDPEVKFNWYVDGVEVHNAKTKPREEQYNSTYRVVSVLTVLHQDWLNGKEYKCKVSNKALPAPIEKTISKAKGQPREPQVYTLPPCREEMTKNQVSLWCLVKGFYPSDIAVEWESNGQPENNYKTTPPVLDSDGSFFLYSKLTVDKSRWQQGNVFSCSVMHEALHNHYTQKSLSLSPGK
heavy: EVQLVQSGAEVKKPGSSVKVSCKASGYTITDSNIHWVRQAPGQSLEWIGYIYPYNGGTDYNQKFKNRATLTVDNPTNTAYMELSSLRSEDTAFYYCVNGNPWLAYWGQGTLVTVSSASTKGPSVFPLAPSSKSTSGGTAALGCLVKDYFPEPVTVSWNSGALTSGVHTFPAVLQSSGLYSLSSVVTVPSSSLGTQTYICNVNHKPSNTKVDKKVEPKSCDKTHTCPPCPAPEAAGGPSVFLFPPKPKDTLMISRTPEVTCVVVDVSHEDPEVKFNWYVDGVEVHNAKTKPREEQYNSTYRVVSVLTVLHQDWLNGKEYKCKVSNKALPAPIEKTISKAKGQPREPQVCTLPPSREEMTKNQVSLSCAVKGFYPSDIAVEWESNGQPENNYKTTPPVLDSDGSFFLVSKLTVDKSRWQQGNVFSCSVMHEALHNHYTQKSLSLSPGK
light: DIQLTQSPSTLSASVGDRVTITCRASESLDNYGIRFLTWFQQKPGKAPKLLMYAASNQGSGVPSRFSGSGSGTEFTLTISSLQPDDFATYYCQQTKEVPWSFGQGTKVEVKRTVAAPSVFIFPPSDEQLKSGTASVVCLLNNFYPREAKVQWKVDNALQSGNSQESVTEQDSKDSTYSLSSTLTLSKADYEKHKVYACEVTHQGLSSPVTKSFNRGEC
notes: Three-chain knob-into-hole heterodimer (scFv-Fc knob arm against CD27, Fab-Fc hole arm against CD33), human IgG1 L234A/L235A constant regions; made in ExpiCHO cells, purified on Protein A; also called 抗体CD27×CD33; 双特异抗体CD27×CD33
